Laboratory results reported in the nanobody polyreactivity screen of Harvey et al. (2022).

Assay: yeast display, Sf9 membrane polyspecificity reagent, FACS + sequencing; frameworks hold sequencing errors
Method in brief: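 A synthetic nanobody library was expressed on Saccharomyces cerevisiae BJ5465 by galactose induction for 36–48 hours. The library was stained for 1 hour at 4 °C with 10% biotinylated, detergent-solubilized Sf9 membrane reagent and enriched with streptavidin microbeads before FACS. Low and high (top ~1%) gates were set on anti-HA fluorescence for expression and streptavidin fluorescence for reagent binding, and each polyreactivity label reflects the gate of origin.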

Row | Sequence | polyreactivity (PSR sort gate)
1 | QVQLVESGRRLVQAGGSLRLSCAASGRTFGFYAMGWYRQAPGKERELVAGITWSGGSTYYADSVKGRFTISRDNAKNTVYLQMNSLKPEDTAVYYCAADVWWYHYLLFDSWGQGTQVTVSS | low polyreactivity
2 | QVQLVESGGGLVQAGGSLRLSCAASGRTFWRNAMGWYRQAPGKERELVAAINSGGRTYYADSVKGRFTISRDNAKNTVYLQMNSLKPEDTAVYYCAAVYSQSTKRYELYYWGQGTQVTVSS | high polyreactivity
3 | QVQLVESGGGLVQAGGSLRLSCAASGFIFSIYAMGWYRQAPGKERELVAGIDNGGGTYYADSVKGRFTISRDNAKNTVYLQMNSLKPEDTAVYYCAADTYSIGELYDYWGQGTQVTVSS | low polyreactivity
4 | QVQLVESGGGLVQAGGSLRLSCAASVITFIDYARGWYRQAPGKERELVAAINSSGGGTYYADSVKGRFTISRDNAKNTVYLQMNSLKPEDTAVYYCAADFWYWGQIDSSDYWGQGTQVTVSS | low polyreactivity
5 | QVQLVESGGCLVQAGGSLRLSCAASGRTFRHYGMGWYRPAPRKERELVAAISRSGGRTYYADSVKGRFTISRDNAKNTVYLQMNSLKPEDTAVYYCNAPYDVTTYAFDYWGQGTQVTVSS | high polyreactivity
6 | QVQLVESGGGLVQAGGSLRLSCAASGRIFATNAMGWYRQAPGKERELVATITRSAGRTYYADSVKGRFTISRDTAKNTVYLQMNSLKPEDTAVYYCAASYWDTEPGYREYDYWGQGTQVTVSS | low polyreactivity
7 | QVQLVESGGGLVQAGGSLRLSCAASGLIFWLNAMGWYRQAPGKDCELVAAISRGGSTNYADSVKGRFTISRDNAKNTVYFQMNSLKPEDSAVYYCAAGSRRAAWYDYSYPYGYWGQGTQVTVSS | high polyreactivity
8 | QVQLVESGGGLVQAGGSLRLSCAASGRIFILNTMGWYRQAPGKERELVAGISYSGSTYYADSVKGRFTISRDNAKNTVYLQMNSMKPEDTAVYYCAADYDAAWYNDGYYYWGQGTQVTVSS | low polyreactivity
9 | QGQLVESGGGLVQAGGSLRLTCAASGFSFFDYAMGWYRQAPWKERELVAAISWDGDNTYYADSVKGRFTISRDNAKYTVYLQMNSLKPDDSAVYYCNADYENYEQFFDYWGQGTQVTVSS | high polyreactivity
10 | QVHLVESGGGLVQAGGSLRLTCAASGRTFGRYAMGWYRQAPGKERELVAAIRYTGGSTYADSVKGRFTISRDNAKNTVYLQMNSLKPEDTAVYYCNRGGAFNTRNEITRYGYWGQVTQVTVSS | low polyreactivity
11 | QVQLVQSGGGLVQAGGSLRLSCAASGRTFYRNGMGWYREAPGKDREFVAAINYRGGSTNYADSVKGRFTITRDNAKITVYLQMNSLKPEDTAVYYCATRIFRAALRFDYWGQGTQVTVSS | high polyreactivity
12 | QVQLVESGGGLVQAGGSLRLSCAASGRILSFYVMGWYRQAPGKERELVAAIRRGGSTYYADSVKGRFTISRDNAKNTVYLQMNSLKPEDTAVYYCNARQRPPPYYYWGQGTQVTVSS | high polyreactivity
13 | QVQLVESGGGLVQAGGSLRLSCAASGFIFYRYAMGWYRQAPGKEREFVAAISRSGGSTYYADSVKGRFTISRDNAKNTVYLQKNSLKPEDTAVYYCNTYQHGYYVAEYDYWGQGTQVTVSS | high polyreactivity
14 | QVQLVESGGGLVQAGGSLRLSCAASGRIFSYNAMGWYRQAPGKERELVAAISYGGGRTYYADSVKGRFTISRDNAKNTVYLQMNSLKPEDTAVYYCAASQYRSPYPYRDYYTPDYDYWGQGTQVTVSS | high polyreactivity
15 | QVQLVESGGGLVQAGGSLRLSCAASGSTFGGYAMGWYRQAPGKERELVAAITSRGGSTYYADSVKGRFTISRDNAKNTVYLQMNSLKPEDTAVYYCATGLPKRDRRARIRYEYWGQGTQVTVSS | low polyreactivity
16 | QVQLVESGGGLVQAGGSLRLSCAASGLIFSRYTMGWYRQPPGKERELVAAISSDGSTYYADSVKGRFTISRDNAKNTVYLQMNSLKPEDTAVYYCAARYWVGGRDRYDSWGQGTQVTVSS | high polyreactivity
17 | QVQLVESGGGLVQAGGSLRLSCAASGSIFSLYAMGWYRQAPGKERELVAAISSSGTSTYYADSVKGRFTISRDNAKNTVYLQMNSLKPEDTAVYYCNAYRRRATYNGDYWGQGTQVTVSS | high polyreactivity
18 | QVQLVESGGGLGQAGGSLRISCAASGRTFGIYAMGCYRQAPGKLRELVATISWRGGSTYYADSVKGRFTISRDNAKNTVYLQMNSLTPEDTAVYYCAAGPGYLILISDIYGYWGQGTQVTVSS | low polyreactivity
19 | QDQLVESGGGLVQAGGSLRLSCAASGSTSRTYAMGWYRQAPGKERELVAAINSGGTTYYADSVKGRFTISRDNAKNTVYLQMNSLKPEDTAVYYCARRDFWWSLRIFGYWGQGTQVTVSS | high polyreactivity
20 | QVQLVESGGGLVQAGGSLRLSCAASGGTFWRNDMGWYRQAPGKERELVAAISYSGGTTYYADSVKGRFTISRDNAKNTVDLQMNSLKPEDTAVDYCATGGYSTRQSTFDYWGQGTQVTVSS | low polyreactivity
21 | QFQLVESGGCLVQAGGSLRLSCAASGSIFLENTMGWYRQARGKEWEVVAPITSSGDSTYADSVKGRFTIARDNAKNTVYLHMNSLKPEDTAVYYCAAYAGSVRPGDLYGYDYWGQGTQVTVSS | low polyreactivity
22 | QVQLVESGGGLVQAGGSLRLSCAASGRTFQFYAMGWYRQAPGKERELVAAITYSGDSTYYADSVKGRFTISRDNAKNTVYLQMNSLKPEDTAVYYCAAGVWFYWYEYDYWGQGTQVTVSS | high polyreactivity
